This is an account of results in FireProtDB.

Several values for one entry are separate records, joined by “and”; a condition that tells them apart may be missing. Equal values may be shown once.

As usually defined, the Tm is the temperature at which the thermal transition is half complete.

B1: W74C, P95467 (parent)
chain: MKKALIASTALLLTAGVAAADVKISGYGRTGVIYYENDSDVNESRVQSRLRMNIDASSSTDSGVDFGARFRLQWDQGEEGEAQTNAGKLWVSAQGFTVEVGNVDTAFASNGLIYETGLGSYDRSVGFSAVTGAFFAYDSNGYGIDEVDRVGIRALYTLGDLTLQASYVDPDQSGTVIGVEEEFGFSVDYTWNERLELSAAAAFNGAGIDGNDIYFLGARYAVMDNARIGLNFVDAGDEEDGYDGKTIALYGDYTLADGRTNLEAYIANNDRDSNETDNAFGIGVNYDLGGARLGASLQRDYAENVTADFGVRFEF
B2: Protein GrpE, Q65H53 (parent)
chain: MAEEKQNEELNEQEELNETEAETAEAEQTAAEADAPAEETQTEMLEKQLKELQERLEEKENKLLRVQADFENYKRRARLDLEAAEKYRSQRIISDLLPALDNFERALQIDPDNEQTKSLLQGMEMVHRQILEALKNEGVEQIPSVGEQFDPNMHQAVMQVEDEAYESNAVVEELQKGYKLKDRVIRPSMVKVNQ
B3: Glutamate dehydrogenase, P96110 (parent)
chain: MPEKSLYEMAVEQFNRAASLMDLESDLAEVLRRPKRVLIVEFPVRMDDGHVEVFTGYRVQHNVARGPAKGGIRYHPDVTLDEVKALAFWMTWKTAVMNLPFGGGKGGVRVDPKKLSRNELERLSRRFFSEIQVIIGPYNDIPAPDVNTNADVMAWYMDTYSMNVGHTVLGIVTGKPVELGGSKGREEATGRGVKVCAGLAMDVLGIDPKKATVAVQGFGNVGQFAALLISQELGSKVVAVSDSRGGIYNPEGFDVEELIRYKKEHGTVVTYPKGERITNEELLELDVDILVPAALEGAIHAGNAERIKAKAVVEGANGPTTPEADEILSRRGILVVPDILANAGGVTVSYFEWVQDLQSFFWDLDQVRNALEKMMKGAFNDVMKVKEKYNVDMRTAAYILAIDRVAYATKKRGIYP
B4: Beta-lactoglobulin, P02754 (parent)
chain: MKCLLLALALTCGAQALIVTQTMKGLDIQKVAGTWYSLAMAASDISLLDAQSAPLRVYVEELKPTPEGDLEILLQKWENGECAQKKIIAEKTKIPAVFKIDALNENKVLVLDTDYKKYLLFCMENSAEPEQSLACQCLVRTPEVDDEALEKFDKALKALPMHIRLSFNPTQLEEQCHI
B5: Proteinase inhibitor, Q03026 (parent)
chain: MSASAKLSRMVCLLCGFFSTGISMASSLILLSASDLAGQWTLQQDEAPAICHLELRDSEVAEASGYDLGGDTACLTRWLPSEPRAWRPTPAGIALLERGGLTLMLLGRQGEGDYRVQKGDGGQLVLRRATP
B6: Gamma-crystallin S, P22914 (parent)
chain: MSKTGTKITFYEDKNFQGRRYDCDCDCADFHTYLSRCNSIKVEGGTWAVYERPNFAGYMYILPQGEYPEYQRWMGLNDRLSSCRAVHLPSGGQYKIQIFEKGDFSGQMYETTEDCPSIMEQFHMREIHSCKVLEGVWIFYELPNYRGRQYLLDKKEYRKPIDWGAASPAVQSFRRIVE
B7: Pyrrolidone-carboxylate peptidase, O73944 (parent)
chain: MKVLVTGFEPFGGEKINPTERIAKDLDGIKIGDAQVFGRVLPVVFGKAKEVLEKTLEEIKPDIAIHVGLAPGRSAISIERIAVNAIDARIPDNEGKKIEDEPIVPGAPTAYFSTLPIKKIMKKLHERGIPAYISNSAGLYLCNYVMYLSLHHSATKGYPKMSGFIHVPYIPEQIIDKIGKGQVPPSMCYEMELEAVKVAIEVALEELL
B8: Cytochrome c2, P00094 (parent)
chain: MKISLTAATVAALVLAAPAFAGDAAKGEKEFNKCKTCHSIIAPDGTEIVKGAKTGPNLYGVVGRTAGTYPEFKYKDSIVALGASGFAWTEEDIATYVKDPGAFLKEKLDDKKAKTGMAFKLAKGGEDVAAYLASVVK
B9: Glutamate dehydrogenase, Q56304 (parent)
chain: MVEQDPFEIAVKQLERAAQYMDISEEALEFLKRPQRIVEVSIPVEMDDGSVKVFTGFRVQYNWARGPTKGGIRWHPEETLSTVKALAAWMTWKTAVMDLPYGGGKGGVICNPKEMSDREKERLARGYVRAIYDVISPYTDIPAPDVYTNPQIMAWMMDEYETISRRKDPSFGVITGKPPSVGGIVARMDATARGASYTVREAAKALGMDLKGKTIAIQGYGNAGYYMAKIMSEEYGMKVVAVSDSKGGIYNPDGLNADEVLAWKKKTGSVKDFPGATNITNEELLELEVDVLAPSAIEEVITKKNADNIKAKIVAELANGPTTPEADEILYEKGILIIPDFLCNAGGVTVSYFEWVQNITGDYWTVEETRAKLDKKMTKAFWDVYNTHKEKNINMRDAAYVVAVSRVYQAMKDRGWIKK
B10: DNA-binding protein HU 1, P08821 (parent)
chain: MNKTELINAVAEASELSKKDATKAVDSVFDTILDALKNGDKIQLIGFGNFEVRERSARKGRNPQTGEEIEIPASKVPAFKPGKALKDAVAGK
B11: Subtilisin-chymotrypsin inhibitor-2A, P01053 (parent)
chain: MSSVEKKPEGVNTGAGDRHNLKTEWPELVGKSVEEAKKVILQDKPEAQIIVLPVGTIVTMEYRIDRVRLFVDKLDNIAQVPRVG
B12: Lipase B, P41365 (parent)
chain: MKLLSLTGVAGVLATCVAATPLVKRLPSGSDPAFSQPKSVLDAGLTCQGASPSSVSKPILLVPGTGTTGPQSFDSNWIPLSTQLGYTPCWISPPPFMLNDTQVNTEYMVNAITALYAGSGNNKLPVLTWSQGGLVAQWGLTFFPSIRSKVDRLMAFAPDYKGTVLAGPLDALAVSAPSVWQQTTGSALTTALRNAGGLTQIVPTTNLYSATDEIVQPQVSNSPLDSSYLFNGKNVQAQAVCGPLFVIDHAGSLTSQFSYVVGRSALRSTTGQARSADYGITDCNPLPANDLTPEQKVAAAALLAPAAAAIVAGPKQNCEPDLMPYARPFAVGKRTCSGIVTP
B13: Tetracycline repressor protein class D, P0ACT4 (parent)
chain: MARLNRESVIDAALELLNETGIDGLTTRKLAQKLGIEQPTLYWHVKNKRALLDALAVEILARHHDYSLPAAGESWQSFLRNNAMSFRRALLRYRDGAKVHLGTRPDEKQYDTVETQLRFMTENGFSLRDGLYAISAVSHFTLGAVLEQQEHTAALTDRPAAPDENLPPLLREALQIMDSDDGEQAFLHGLESLIRGFEVQLTALLQIVGGDKLIIPFC

Variants of B1 are the subject of one series. To be noted: Paracoccus denitrificans; pH 8; Thermal; Absorbance; Tris-HCl 50 mM; NaCl 100 mM; reversible: no; whole UniProt chain shown.
For W74C, the Tm worked out at 82.4 °C and the “change of melting temperature, mutant - wild type (higher = more stable)” value (shortened to “change of melting temperature, mutant”) was -3.8 °C.

Another series covers variants of B2. To be noted: Bacillus licheniformis (strain ATCC 14580 / DSM 13 / JCM 2505 / CCUG 7422 / NBRC 12200 / NCIMB 9375 / NCTC 10341 / NRRL NRS-1264 / Gibson 46…; pH 7; Thermal; CD; Hepes 10 mM; reversible: Yes; whole UniProt chain shown.
Take L134H: the Tm is 43.2 °C; the “change of melting temperature, mutant” value is -8.8 °C; the “unfolding enthalpy (van 't Hoff)” value stood at 21 kcal/mol.
In the same order, the values of L52P are 40.1 °C, -11.9 °C and 37.5 kcal/mol.

A further series covers variants of B3. To be noted: Thermotoga maritima (strain ATCC 43589 / DSM 3109 / JCM 10099 / NBRC 100826 / MSB8); pH 7.4; Thermal; DSC; Sodium phosphate 20 mM; reversible: no; structure 1B26; whole UniProt chain shown.
Take S129R: the Tm is 87 °C.
Consider T159E, for which the Tm was found to be 83.1 °C.
On the same count and under the same terms, next, N118R: 88.7 °C; S129R T159E N118R S161E: 88.3 °C.
As to S129R T159E S161E, the Tm stood at 88 °C.
Still for that read-out and setting: in the case of S129R T159E N118R it was 89.6 °C.

In a further series the parent is B4. Conditions: Bos taurus; pH 7.1; 30 °C; GdnHCl; CD; phosphate 0.11 M; NaCl 0.04 M; structure 1B0O; whole UniProt chain shown.
With W35Y, the “ddG of mutation (higher = less stable)” value was determined as 6.91 kcal/mol and the unfolding free energy turned out to be 4.3 kcal/mol.

In a further series the parent is B5. To be noted: Pseudomonas aeruginosa (strain ATCC 15692 / DSM 22644 / CIP 104116 / JCM 14847 / LMG 12228 / 1C / PRS 101 / PAO1); pH 7.1; 25 °C; GdnHCl; CD; Tris-HCl 50 mM; reversible: yes (75%); structure 2RN4; whole UniProt chain shown.
As for W40F, the “ddG of mutation (higher = less stable)” value is -1.1 kcal/mol and the unfolding free energy stood at 4.9 kcal/mol.
In the same order, the values of D35A are -2.7 kcal/mol and 6.5 kcal/mol.
In the same order, the values of A33P are -3.2 kcal/mol and 7 kcal/mol.

Still in this series, the particulars now being: Pseudomonas aeruginosa (strain ATCC 15692 / DSM 22644 / CIP 104116 / JCM 14847 / LMG 12228 / 1C / PRS 101 / PAO1); pH 7.1; Thermal; CD; sodium phosphate 20 mM; NaCl 0.1 M; reversible: yes (75%); structure 2RN4; whole UniProt chain shown.
On to D35A, for which the Tm amounted to 81.5 °C; the “change of melting temperature, mutant” value stood at 17.7 °C; the “unfolding enthalpy (van 't Hoff)” value was 84.5 kcal/mol.

In the next series the parent is B6. Conditions: Homo sapiens; pH 7.4; Thermal; Fluorescence; Disodium phosphate; NaCl; structure 6FD8; whole UniProt chain shown.
S39C: the Tm is 61.3 °C and 58.8 °C; the “change of melting temperature, mutant” value is -6.2 °C and -7 °C.

In another series the parent is B7. To be noted: Pyrococcus furiosus (strain ATCC 43587 / DSM 3638 / JCM 8422 / Vc1); pH 7; 60 °C; GdnHCl; CD; Tris-HCl 20 mM; reversible: yes; structure 1IOF; whole UniProt chain shown.
Take C142S C188S: the denaturant m value came out at 4.16 kcal/mol/M, the “denaturant midpoint (higher = more stable)” value (“denaturant midpoint” for short) is 3.4 M and the unfolding free energy was found to be 13.5 kcal/mol.

Variants of B8 are the subject of a further series. To be noted: Rhodobacter capsulatus (strain ATCC BAA-309 / NBRC 16581 / SB1003); pH 7.5; 30 °C; GdnHCl; CD; Tris 20 mM; structure 1C2R; whole UniProt chain shown.
G55S: the “denaturant midpoint” value worked out at 0.86 M.
The same measure, in the same setting: next, P56A: 0.9 M.

The variants in a further series derive from B9. Conditions: Thermococcus litoralis (strain ATCC 51850 / DSM 5473 / JCM 8560 / NS-C); pH 7; Thermal; DSC; diglycine 50 mM; KCl 700 mM; reversible: no; structure 1BVU; whole UniProt chain shown.
Take D168T: the midpoint of thermal melting (Tm) is 108 °C and the “change of melting temperature, mutant” value was -0.5 °C.
In the same order, the values of T139E are 104 °C and -5.5 °C.
In the same order, the values of T139E D168T are 112 °C and 2.5 °C.

Variants of B10 are the subject of the next series. Conditions: Bacillus subtilis (strain 168); pH 7.5; 20 °C; Thermal; CD; Tris/HCl 5 mM; reversible: yes; whole UniProt chain shown.
Turning to F50W, the unfolding free energy came out at 8.61 kcal/mol.
On the same count and under the same terms, in the case of F79W it was 9.57 kcal/mol.

Variants of B11 are the subject of a further series. To be noted: Hordeum vulgare; pH 7; 30 °C; GdnHCl; Fluorescence; MOPS 50 mM; structure 2CI2; whole UniProt chain shown.
As for I40V, the “ddG of mutation (higher = less stable)” value was found to be 1.17 kcal/mol, the denaturant m value came to 1.92 kcal/mol/M and the unfolding free energy turned out to be 5.88 kcal/mol.
Taken in the same sequence, the figures for I40L were 1.96 kcal/mol, 1.92 kcal/mol/M and 5.09 kcal/mol.

The series is the same for the next values; noted with them: Hordeum vulgare; pH 6.3; 25 °C; GdnHCl; Fluorescence; MES 50 mM; structure 2CI2; whole UniProt chain shown.
P53E F70A: the unfolding free energy worked out at 2.61 kcal/mol.
On the same count and under the same terms, in the case of L21M it was 7.3 kcal/mol.

Still in this series, the particulars now being: Hordeum vulgare; pH 4.2; 50 °C; GdnHCl; Fluorescence; Sodium acetate 50 mM; reversible: yes; structure 2CI2; whole UniProt chain shown.
Consider R68A, for which the “ddG of mutation (higher = less stable)” value is 1.4 kcal/mol and the unfolding free energy came out at 4.1 kcal/mol.

In a further series the parent is B12. To be noted: Pseudozyma antarctica; pH 7; Thermal; Differential Scanning Fluorimetry; HEPES 10mM; structure 1TCA; whole UniProt chain shown.
For Q181C L188C, the midpoint of thermal melting (Tm) is 46.1 °C and the “change of melting temperature, mutant” value was -8.7 °C.
Taken in the same sequence, the figures for A187C K333C were 55.9 °C and 1.1 °C.
Taken in the same sequence, the figures for N194C F329C were 56.3 °C and 1.5 °C.

Still in this series, the particulars now being: Pseudozyma antarctica; pH 7; Thermal; CD; Tris-HCl 50 mM; reversible: No; structure 1TCA; whole UniProt chain shown.
For the variant V246D, the Tm was found to be 55.7 °C and the “change of melting temperature, mutant” value is -2 °C.
Taken in the same sequence, the figures for V235I were 58.5 °C and 0.8 °C.
In the same order, the values of V235I A306E are 52.1 °C and -5.6 °C.

In the next series the parent is B13. To be noted: Escherichia coli; pH 7.5; 22 °C; Urea; CD; Tris-HCl 50 mM; NaCl 150 mM; reversible: yes(92%); structure 2TRT; whole UniProt chain shown.
R128E: the “denaturant midpoint” value was 4.9 M.
